Experiment: yeast display, Sf9 membrane polyspecificity reagent, FACS + sequencing; frameworks hold sequencing errors
How it was run: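 Genes from sorted yeast were amplified by colony PCR, read by MiSeq 2 × 250 sequencing and filtered on CDR length. These cells carried a synthetic nanobody library in Saccharomyces cerevisiae BJ5465 and were sorted by FACS into low and high (top ~1%) gates on anti-HA and streptavidin fluorescence. Polyreactivity is labelled according to the gate of origin.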

Row | Sequence | polyreactivity (PSR sort gate)
1 | QVQLVESGGGLVQAGGSLRLSCAASGSTFKYNAMGWSRQAPGKERELVASISRSGGSTYYADSVKGRFTISRDNAKNTVYLQMNSQKPEDTAVYYCNVRRFVHYEYWGQGTQVTVSS | high polyreactivity
2 | QVQLVESGGGLVQAGGSLRLSCAASGSTFKYYAMGWYRQAPAKERELVAAISARTGSTYYADSVKGRFTISRDNAKNTVYLQMNRLKPEDTAVYYCNKLTWRGEVDYWGQGTQVTVSS | high polyreactivity
3 | QVQLVESGGGLVQAGGSLRLSCAASGSTFKYYAMGWYRQAPGKERELVAAISRRGGSTYYADSVKGRFTISRDNAKNTVYLQMNSLKPEDTAVYYCAARLPGYYGIGDYWGQGTQVTVSS | high polyreactivity
4 | QVQLVESGGGLVQAGGSLRLSCAASGSTFKYYAMGWYRQATGKERELLAAITWRGGSTYYADSVKGRFTISRDNAKNSVYLLMKSLKPEDTAVYYCARQRYYGLRTLMEHWGQGTQVTVSS | high polyreactivity
5 | QVQLVESGGGLVQAGGSLRLSCAASGSTFKYYTMGWYRQAPGKERELVAAITSGGSTNYADSVKGRFTISRDNAKNTVYLQMNSLNPEDTAVYYCAAGGRRFYVGVIYDYWGQGNQVTVSS | high polyreactivity
6 | QVQLVESGGGLVQAGGSLRLSCAASGSTFLDNAMGWYRQAPGKERELVAAITQSGSSTYYADSVKGRFTISRDNAKNTVYLQMNSLKPEDTAVYYCAADVPNISFDYWGQGTQVTVSS | low polyreactivity
7 | QVQLVESGGGLVQAGGSLRLSCAASGSTFLDYAMGWYRQAPGKERELVAAITSGGSTYYADSVKGRFTISRDNAKNTVYLQMNSLKPEDTAVYYCAAEQTQLYSFGWDEYWGQGTQVTVSS | low polyreactivity
8 | QVQLVESGGGLVQAGGSLRLSCAASGSTFLDYDMGWYRQAPGKERELVATINSVGSTYYADSVKGRFTISRDNAKNTVYLQMNSLKPEDTAVYYCAARQEPGWYPDVWWEYDYWGQGTQVTVSS | low polyreactivity
9 | QVQLVESGGGLVQAGGSLRLSCAASGSTFLFNVMGWYRQAPGKERELVAAITSGASTYYADSVKGRFTISRDNAKNTVYLQMNSLEPEDTAVYYCAVDYSFRYDYVQRYYYWGQGTQVTVSS | high polyreactivity
10 | QVQLVESGGGLVQAGGSLRLSCAASGSTFLFYAMGWYRQAPGKEREFVDAISWSGGSTFYADSVKGRFTISRYNAKNTVYLQMNSLKPEDTAVYYCAARQDGYSGRKLYYLGQGTQVTVSS | low polyreactivity
11 | QVQLVESGGGLVQAGGSLRLSCAASGSTFLGNDMGWYRQEPGKERELVASINSATSTTYADSVKGRFTISRDNAKNTVYLQMNSLKPEDTAVYYCAARYYRPLDYWGQGTQVTVSS | low polyreactivity
12 | QVQLVESGGGLVQAGGSLRLSCAASGSTFLINAMGWYRQAPGKERELVAAITASGGSTYADSVKGRFTISRDNAKNTVYLQMNSLKPEDTAVYYCAARYFPRHRYYYWGQGTQVTVSS | high polyreactivity
13 | QVQLVESGGGLVQAGGSLRLSCAASGSTFLITALGWYRQAPGKEREFVADISSSDGSTYYADSVKGRFTISRDNAKNTVYLQMNSLKPEDTAVYYCAAAHVEGSYHKYYYWGQGTQVTVSS | high polyreactivity
14 | QVQLVESGGGLVQAGGSLRLSCAASGSTFLNYAMGWYRQAPGKERELVAAISGRGGRTYYADSVKGRFTISRDNAKNTVYLQMNSLKPEDTAVYYCARRVRFPGGTFYYWGQGTQVTVSS | high polyreactivity
15 | QVQLVESGGGLVQAGGSLRLSCAASGSTFLNYVMGWYRQAPGKERELVATINSGDSTNYADSVKGRFTISRDNAKNTVYLQMNSLKPEDTAVYYCAAEGNYWVDYWGQGTQVTVSS | low polyreactivity
16 | QVQLVESGGGLVQAGGSLRLSCAASGSTFLNYVMGWYRQAPGKERELVATINSGDSTTYADSVKGRFTISRDNAKNTVYLQMNSLKPEDTAVYYCNADPYYYSTYWSVKYDYWGQGTQVTVSS | low polyreactivity
17 | QVQLVESGGGLVQAGGSLRLSCAASGSTFLRYAMGWYIQAPGKERELVATISTSRGSTHYADSVKGRFTISRYNAKNTVYLQMNSLKPEDSAVYYCATRGGKWYYRTRQPYPYAMDYWGQGTQVTVSS | high polyreactivity
18 | QVQLVESGGGLVQAGGSLRLSCAASGSTFLRYVMGWYRQAPGKERELVAAIDSGGSTHYADSVKGRFTISRDNAKNTVYLQMNSLKPEDTAVYYCNVDVSSDDWYPSTADFDYWGQGTQVTVSS | high polyreactivity
19 | QVQLVESGGGLVQAGGSLRLSCAASGSTFLSNAMGWYRQAPGKERELVAGITSGTSTYYADSVKGRFTISRDNAKYTVYLQMNSLKPEDTAVYYCNADDAEVLYQYVEYDYWGQGTQVTVSS | low polyreactivity
20 | QVQLVESGGGLVQAGGSLRLSCAASGSTFLSYAMGWYRQAPGKERELVAAISWSDVNTYYADSVKGRFTISRDNAKNTVYLQMNSLKPEDTAVYYCNARYYLYWGQGTQVTVSS | low polyreactivity
21 | QVQLVESGGGLVQAGGSLRLSCAASGSTFLSYAMGWYRQAPGKERELVAVISWSGVSTYYADSVKGRFTISRDNAKNTVYLQMNSLNPEDTEVYYCNTGHHYIRTYGYWGQGTQVTVSS | low polyreactivity
22 | QVQLVESGGGLVQAGGSLRLSCAASGSTFLTKAMGWNRQAPGKERELVAAISRSGGSTYYADSVKGRFTISRDNAKNTVYLQMNSLKPEDTAVYYGAAYSWRYQAWEFGYWGQGTQVTVSS | high polyreactivity

Row | Sequence | polyreactivity (PSR sort gate)
23 | QVQLVESGGGLVQAGGSLRLSCAASGSTFLTYAMGWYRQAAGKERELVAGISYSTGSTYYADSVKGRFTISRDNAKNTVYLQMNSLKPEDTAVYYCAADEWDGLWYYYYFNYEDWGQGTQVTVSS | low polyreactivity
24 | QVQLVESGGGLVQAGGSLRLSCAASGSTFLTYAMGWYRQAPGKEREFVAAISSTGTGRTYYADSVKGRFTISRDNAKNTVYLQMNSLKPEDTAVYYCAADLYGTYDYWGQGTQVTVSS | low polyreactivity
25 | QVQLVESGGGLVQAGGSLRLSCAASGSTFLTYAMGWYRQAPGKERELLAASTRSTSTYADSVKGRFTISRDNAKNTVYFQMNSLKPEDTAVYYCNVDSYFRWWYDEWGQGTQVTVSS | high polyreactivity
26 | QVQLVESGGGLVQAGGSLRLSCAASGSTFLWNAMGWYRQAPGKERELVAAISYSGGSTYYADSVKGRFTISRDNAKNTVYLQMNSLKPEDTAVYYCAKEWFYDPYPPGYDYWGQGTQVTVSS | low polyreactivity
27 | QVQLVESGGGLVQAGGSLRLSCAASGSTFLYNAMGWYRQAPWKERELVAAISWSGGSTYYADSVKGRFTISRDNAKNTVYLQMNSLKPEDTAVYYCAAEQRRFTGYDYWGQGTQVTVSS | high polyreactivity
28 | QVQLVESGGGLVQAGGSLRLSCAASGSTFLYNTMGWYRPAPGKERELVAAITSAGSTNYADSVKGRFTISRDNAKNTVYLQMNSLKPEDTAVYYCAAVGPTSGARYTYDYWGQGTQVTVSS | low polyreactivity
29 | QVQLVESGGGLVQAGGSLRLSCAASGSTFLYNTMGWYRQAPGKERELVATITSRGDRTYYADSVKGRFTISRDNAKNTVYLQMNSLNPEDTGVYYCARDYGPYLSPENPAPMDYWGQGTQVTVSS | low polyreactivity
30 | QVQLVESGGGLVQAGGSLRLSCAASGSTFLYYAMGWYREAPGKERELVAVISWSGVSTYYADSVKGRFTISRDNAKNTVYLQMKSLKPEDTAVYYCNTGNHYIRTYGYWGQGTQVTVSS | low polyreactivity
31 | QVQLVESGGGLVQAGGSLRLSCAASGSTFLYYAMGWYRQAPGKEREFVAAISISGGSTYYADSVKGRFTISRDNAKNTVYLQMNSLKPEDTAVYYCAARKKEYKPGNYWGQGTQVTVSS | low polyreactivity
32 | QVQLVESGGGLVQAGGSLRLSCAASGSTFLYYAMGWYRQAPGKEREFVAAISKGSGRTYYADSVKGRFTISRDNAKNTVYLQLNSLKPEDTAVYYCAAAKWRGYPYQSDYWGQGTQVTVSS | high polyreactivity
33 | QVQLVESGGGLVQAGGSLRLSCAASGSTFLYYAMGWYRQAPGKERQLVAAISGSGGSTYYADSVKGRFTISRDNAKNNVYLQMYSLKPEDTAVYYCNAVARRHGLGPYDYWGQGTQVTVSS | high polyreactivity
34 | QVQLVESGGGLVQAGGSLRLSCAASGSTFLYYAMGWYRQEPGKERELVAAINWNGGSTYYADSVKGRFTISRDNAKNTVYLQMNSLKPEDTAVYYCNAYGISPYEYYYWGQGTQVTVSS | low polyreactivity
35 | QVQLVESGGGLVQAGGSLRLSCAASGSTFLYYAMGWYTQAPGKERELVAAITVRGGNTYYADSVKGRFTISRDNAKNTVYLQMNSLKPEDTAVYYCAARAYYSFRYDYWGQGTQVTVSS | high polyreactivity
36 | QVQLVESGGGLVQAGGSLRLSCAASGSTFLYYTMGWYRQAPGKERELVAAITGSGTSTYYADSVKGRFTISRDNAKNTVYLQMNSLKPEDTAVYYCAARGHGRLYYWGHGTQVTVSS | high polyreactivity
37 | QVQLVESGGGLVQAGGSLRLSCAASGSTFLYYTMGWYRQAPGKERELVAAITNGGGSTYYADSVKGRFTISRDNAKNTVYLQMNSLKPEDTAVYYCNAPTVKYRLGYDYWGQGTQVTVSS | high polyreactivity
38 | QVQLVESGGGLVQAGGSLRLSCAASGSTFLYYTMGWYRQAPGKERELVATISRDGSTKYADSVKGRFTISRDNAKITVYLQMNSLKPEDTAVYYCAAARDSIVYGQYDYWGQGTQVTVSS | low polyreactivity
39 | QVQLVESGGGLVQAGGSLRLSCAASGSTFNANAMGWYRQAPGKERELVAAITAIGGSTYYADSVTGRFTISRDNAKNTVYLQMNSLKPEDTAVYYCAADFSYVYYLYDYWGQGTQVTVSS | low polyreactivity
40 | QVQLVESGGGLVQAGGSLRLSCAASGSTFNDYAMGWYRQAPGKERELVASIRYSGGGTYYADSVKGRFTISRDNAKNTVYLQMNSLKPEDTAVYYCAKDTHLLNEHSGTSREYDYWGQGTQVTVSS | low polyreactivity
41 | QVQLVESGGGLVQAGGSLRLSCAASGSTFNEYTMGWYRQAPGKERELVAAIRATDGSTYYADSVKGRFTISRDNAKNTVYLQMNSLKPEDTAVYYCAADYYWNDYWGQGTQVTVSS | low polyreactivity
42 | QVQLVESGGGLVQAGGSLRLSCAASGSTFNGYAMGWYRQAPGKERELVAAITSSGSRTYYADSVKGRFTISRDNAKNTVYLQMNSLKPVDTAVYYCNAGKLARTYFRSSSLSPGDYWGQGTQVTVSS | high polyreactivity
43 | QVQLVESGGGLVQAGGSLRLSCAASGSTFNGYTMGWYRQAPGKEREFVATITFSDGSTYYADSVKGRFTISRDNAKNTVYLQMNSLKPEDTAVYYCNVDSPIGYDYWGQGTQVTVSS | low polyreactivity

Reference: the nanobody polyreactivity screen of Harvey et al. (2022)
